# Measurements from patent US6528633.
# B1: recombinant clam E2-C, bacterially expressed (protein)
# chain: MSGQNIDPAANQVRQKERPRDMTTSKERHSVSKRLQQELRTLLMSGDPGITAFPDGDNLFKWVATLDGPKDTVYESLKYKLTLEFPSDYPYKPPVVKFTTPCWHPNVDQSGNICLDILKENWTASYDVRTILLSLQSLLGEPNNASPLNAQAADMWSNQTEYKKVLHEKYKTAQSKDK
# What was measured:
# [1] = molecular target: non-specific ubiquitin-protein ligase (E3) from clam oocyte Fraction 1A
# [2] = molecular target: clam E3-C/cyclosome complex, activated, partially purified
protein,measurement,setting,value
B1,formation of ubiquitin-protein conjugates,[1],the recombinant clam E2 had no significant influence on the formation of ubiquitin-protein conjugates by the non-specific E3
same,half-maximal activation of cyclin ubiquitination,[2],half-maximal activation was obtained with 0.05 µM recombinant E2
